test: yeast display, Sf9 membrane polyspecificity reagent, FACS + sequencing; frameworks hold sequencing errors
Summary of the method: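 Galactose induction of a Saccharomyces cerevisiae BJ5465 synthetic nanobody display library ran 36–48 hours. The cells were then stained for 1 hour at 4 °C with 10% biotinylated, detergent-solubilized Sf9 membrane reagent, pulled down on streptavidin microbeads and FACS-sorted into low and high (top ~1%) gates on expression and reagent-binding fluorescence. Labels for polyreactivity follow the gate of origin.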

Sequence | polyreactivity (PSR sort gate)
QVQLVESGGGLDQAGGSLRLSCAASGFIFYRYVMGWYRQAPGKERELVATISSGGSTNYADSVKGRFTISRDNAKNTVYLQMNSLKPEDTAVYYCAKRRYFYNYYEYDYWGQGTQVTVSS | high polyreactivity
QVQLVESGGGLDQAGGSLRLSCAASGFIFYYYAMGWYRQAPGKEREFVAGISRRGGSSYYADSVKGRFTISRDNAKNTVYLQMNSLKPEDTAVYYCIVDFHWQRFHHKSAAYDYWGQGTQVTVSS | high polyreactivity
QVQLVESGGGLDQAGGSLRLSCAASGFIYWYYAMGWYRQAPVKERELVAAITRGGSTNYADSVKGRFTISRDNAKNTVYFQKNRLKPEDTSVYYCNASWRLVSSGFDGGYWGEGTQVTVSS | high polyreactivity
QVQLVESGGGLDQAGGSLRLSCAASGFTFRWYAMGWYRQAPGKERELVAAISRGGNTNYADSVKGRFTISRDNAKNTVYLQMNSLKPEDSAVYYCARNTGPYLGYYHRYYWGHGTQVTVSS | high polyreactivity
QVQLVESGGGLDQAGGSLRLSCAASGFTFVGNAMGWYRQAPGKERELVATITSGGNTKYADSVKGRFTISRDNAKNTVYLQMNSLKPEDTAVYYCAAAKYNYRRFNYWGQGTQVTVSS | low polyreactivity
QVQLVESGGGLDQAGGSLRLSCAASGFTFYRNAMGWYRQAPGKERELVAAITSGGSTYYADSVKGRFTISRDNAKNTVYLQMNSLKPEDTAVYYCAAYVWSGWGHWFYYWGQGTQVTVSS | high polyreactivity
QVQLVESGGGLDQAGGSLRLSCAASGGIFQKYAMGWYRQAPGQERELVAAISYSTTRTYYADSVKGRFTISRDNAKKTVYLQMNSLKPEDTAVYYCAARGYFWSSYKYDYWGQGTQVTVSS | high polyreactivity
QVQLVESGGGLDQAGGSLRLSCAASGGTFAVYAMGWYRQAPGKERELVAAIDSGGRTNYADSVKGRFTISRANAKNTVYLQMNSLKPEDTAVYYCAADGGGQYVRYDYWGQGTQVTVSS | high polyreactivity
QVQLVESGGGLDQAGGSLRLSCAASGGTFDTYAMGWYRQAPGKERELVAGIDWSGGSTYYADSVKGRFTISRDNAKNTVYLQMNSLKPEDTAVYYCAADYYYPSQMDYWGQGTQVTVSS | low polyreactivity
QVQLVESGGGLDQAGGSLRLSCAASGIIFSSYAMGWYRQAPGKERELVAAISYSGGSTYYADSVKGRFTISRDNAKNTVYLQMNSLKPEDTAVYYCAAQGYSPGGYDYWGQGTQVTVSS | low polyreactivity
QVQLVESGGGLDQAGGSLRLSCAASGIIFVENAMGWYRQAPGKERELVASGDSTYADSVKGRFTISRDNAKNTVYLKMNSRKPEDTAVYYCAAEVYVYHPFVHYDYWGQGTQVTVSS | low polyreactivity
QVQLVESGGGLDQAGGSLRLSCAASGITFKPYGMGWYRQAPGKERELVADITSGGITYYADSVKGRFTISRDNAKNTVYLQMNSLKPEDTAVYYCATGDLFVFYWGYVVRLYDYWGQGTQVTVSS | low polyreactivity
QVQLVESGGGLDQAGGSLRLSCAASGITFQSNAMGWYRQAPGKERELVAGISGSGARTYYADSVKGRFTISRDNAKNTVYLQMNSLKPEDTAVYYCAKKSSYRYGYWGQGTQVTVSS | high polyreactivity
QVQLVESGGGLDQAGGSLRLSCAASGITFRYYAMGWYRQAPGKERELVATISRGVRTNYADSVKGRFTISRDNAKNTVYLQMNSLKPEDTAVYYCNADYASARRYDYWGQGTQVTVSS | high polyreactivity
QVQLVESGGGLDQAGGSLRLSCAASGLTFGGNAMGWYRQAPGKERELVAAISWSDDTTDYADSVKGRFTISRDNAKNTVYLQMNSLKPEDTAVYYCAARLPFEHVDYWGQGTQVTVSS | low polyreactivity
QVQLVESGGGLDQAGGSLRLSCAASGLTFYSNAMGWYRQAPGKERELVARISTGGSTYADSVKGRFTISRDNAKNTVYLQMNSLKPEDTAVNYCAKLPPRGIDDEYWGQGTQVTVSS | low polyreactivity
QVQLVESGGGLDQAGGSLRLSCAASGLTLAVNAMGCYRQAPGKERELVAAISRRGGSTYYADSVKGRFTISRDNSKNPVYLQMNSLKPEDTAVYYCAAKYNYSEMDSWGQGTQVTVSS | high polyreactivity
QVQLVESGGGLDQAGGSLRLSCAASGNIFRIYAMGWYRQAPGKERELVATITKRGGSTYYADSVKGRFTISRDNAKNTVYLQMNSLKPEDTAVNYCNAVTKLWYDYDYWGQGTQGTVSS | high polyreactivity
QVQLVESGGGLDQAGGSLRLSCAASGNIFYTNAMGWYRQEPGKAREFVAAISGSGGRTYYADSVKGRFTMSRDNAKNTFYLQMNSLKPEDTEVYYCNAVRRDYYDRNYGYWGQGTQVSVSS | low polyreactivity
QVQLVESGGGLDQAGGSLRLSCAASGRIFDKYALGCYRHAPGKERELVAAISSSGGSTYYADSVKGRFTISRDNAKNTVYLQMNSLKTEDTAVYYCAKLVVVPFYYWGQGTQVTVSS | high polyreactivity
QVQLVESGGGLDQAGGSLRLSCAASGRIFGRYAMGWYRQAPGKERELVASISRGGSTNYADSVKGRFTISRDNAKNTVYLQMNSLKPEDTAVYYCAKSGGVGGEDRVGSWGQGTQVTVSS | low polyreactivity

Sequence | polyreactivity (PSR sort gate)
QVQLVESGGGLDQAGGSLRLSCAASGRIFRYYAMGWYRQAPGKERELVAAISTSGDTTYYADSVKGRFTISRDNAKNTVYLQMNSLKPEDTAVYYCAADTYYYLVKYGSYDYWGQGTQVTVSS | high polyreactivity
QVQLVESGGGLDQAGGSLRLSCAASGRIFYQNAMGWYRQAPGKERELVAAITSSGVSTYYADSVKGRFTISRDYAKNTVYLQMNSLKPEDTAVYYCAAYRVGYGGYSYYYWGQGTQVTVSS | high polyreactivity
QVQLVESGGGLDQAGGSLRLSCAASGRISYRYAMGSYRQAPGKEMELVASISSGVSTYYADSVKGRFTISRDNAKNTVYLQMHSLKPEDSAVYFCAAAYWFHNDYWGLGTQVTVSS | high polyreactivity
QVQLVESGGGLDQAGGSLRLSCAASGRIYYNYAMGWYRQSPVKERELVAAISGSGGSTYYADSVKWRLTISRDNAKNTVYLLMNSLKPEDTAVYYCSTSGPQYYSRNFDYWGQGTQVTVSS | low polyreactivity
QVQLVESGGGLDQAGGSLRLSCAASGRIYYPYARGLYRQAPGKESELVAAISSGVSTNYADSVKGRFTISRDNAKTTVYLQMNSLKPEDTAVYYCARTYFRFASSYYPAVSHGYWGQGTQVTVSS | high polyreactivity
QVQLVESGGGLDQAGGSLRLSCAASGRTFEQYAMGWYRQAPGKVRELVAAISGSGGSTFYADSVKGRFTISRDNAKNTVYLQMNSLKPEDTAVYYCADKYDGSYVGLYWYSMNYCGQGTQVTVSS | low polyreactivity
QVQLVESGGGLDQAGGSLRLSCAASGRTFGGYAMGWYRQAPGKERELVARISRSGGSTYYADSVKGRFTISRDNAKNTVYFQMNSLKPEDTAVYYCNTGLRTAYGWPQDDYWGQGTQVTVSS | low polyreactivity
QVQLVESGGGLDQAGGSLRLSCAASGRTFPYYAMGWYRQAPGKERELVAAISSSGGRTYYADSVKGRFTISRDNAKNTVYLQMNSLKPEDTAVYYCNVDAWYPYQGFLVGYYYWGQGTQVTVSS | low polyreactivity
QVQLVESGGGLDQAGGSLRLSCAASGRTFYNNAMGWYRPAPGKERELVAAITRGGSTYYADSVKGRFTISRDNAKNTVYLPMNSLKPEDTAVYYCAADGFTRWGRYDYWGQGTQVTVSS | high polyreactivity
QVQLVESGGGLDQAGGSLRLSCAASGRTFYYYAMAWYRQAPRTERELVAAIRRSGSSTYYADSVKGRFTISRDNAKNTVYLQMNSLKPEDTAFYYCAAAVYQRARYYWGQGTQVTVSS | high polyreactivity
QVQLVESGGGLDQAGGSLRLSCAASGRTLYKYAMGWYRQAPGKERELVAAIRWIGGSTYYADSVKGRFTISRDNAKNTVYLQMNSLKPEDTAVYYCAATYYYSRYGRYDYWGQGTQVTVSS | high polyreactivity
QVQLVESGGGLDQAGGSLRLSCAASGSIFDPYAMGWYRPAPGKEREFVAVISKGGTNTYYADSVKGRFTISRDNAKNTVYLQMNSLKPEDTAGYYCAARVDTYRAKYYYWRQGTQVTVSS | high polyreactivity
QVQLVESGGGLDQAGGSLRLSCAASGSIFEGNGMGWYRQAPGKERELVAAITFRSGSTYYADSVKGRFTISRDNAKNTVYLQMNSLKPEDTAVYYCAADEYYQVSAYDYWGQGTQVTVSS | low polyreactivity
QVQLVESGGGLDQAGGSLRLSCAASGSIFEPYDMGWYRQAPGKERELVASISRGGSTYYADSVKGRFTISRDNAKNTVYLQMNSLKPEDTAVYYCAADPYYYSSGYYYWGQGTQVTVSS | low polyreactivity
QVQLVESGGGLDQAGGSLRLSCAASGSIFGYAMGWYRQAPGKERELLAAITDSGGRTYYADSVKGRFTISRDNAKNTVYLQMNSLKPEDTAVYYCAKTWYPWSRYGYYRRYDSWGQGTQVNVSS | low polyreactivity
QVQLVESGGGLDQAGGSLRLSCAASGSIFPDYAMGWYIPAPGKERELVAAITWSGGNTYYADSVKGRFTISRDNAKNTVYLQMNSLKPEDTAVYYCAADISLHWYYYRRYNYWGQGTQVTVSS | low polyreactivity
QVQLVESGGGLDQAGGSLRLSCAASGSIFQDYAMGWYRQAPGKERELVAAITKSGVSTYYADSVKGRFTISRDNAKNTVYLQMNSLKPEDTAVYYCAAPRYVRYHRGYGFDYWGQGTQVTVSS | low polyreactivity
QVQLVESGGGLDQAGGSLRLSCAASGSIFYRNAMGWYRQAPGKEMELVAAISGRGGSTNYADSVKGRFTISRDNAKNTVYLPMNSLKPEDTAVYYCNRFGVSNILVRGGYWGLGTQVTVSS | high polyreactivity
QVQLVESGGGLDQAGGSLRLSCAASGSTFDWYTMGWNRQAPGKERELVAAISSGGRTYYADSVKGRFTISRDNAKNTVYLQMNSLKPEDTAVYYCAVAWRVGITKYGYWGQGTQVTVSS | high polyreactivity
QVQLVESGGGLDQAGGSLRLSCAASGSTFGYYAMGWYREAPGKERELVASITSDGSTNYADSVKGRFTISRDNAKNTVYLQMNSLKPEDTAVYYCAAYVWRYWHEYDYWGQGTLVTVSS | low polyreactivity

From the nanobody polyreactivity screen of Harvey et al. (2022)
